# Data: patent publication US20220282255, “APTAMER FOR TGF-BETA1 AND USE OF SAME” (RIBOMIC INC., published 2022)
# Changes are numbered by the printed parent chain.
# B1: SEQ ID NO: 27 (ssRNA)
# RNA: GGGAAUGCACUAGUGUUCAACAUUUAGCAACACAAGUCGUCCCCCACGGCAAGCAGUCCUCAAUCCUGACAAGCUUGCACGUCGAGUCAG
# modifications: 2'-F all pyrimidines (U,C)
# B2: SEQ ID NO: 13 (ssRNA)
# RNA: GGGAUCCGCAUCUAGAGUACACUAGUCACAUUGCGUGUACAUUACUCUGCGCAAUCGAUAAACGUCUACUGAAGCUAUCA
# modifications: 2'-F all pyrimidines (U,C)
# B3: SEQ ID NO: 17 (ssRNA)
# RNA: GGGAGAACUUGGAGCUGAUGUCUGGAGUCCCCAUAUAUCACGUACAGUGUAGUGCGACGUCAGUC
# modifications: 2'-F all pyrimidines (U,C)
# B4: SEQ ID NO: 38 (ssRNA)
# RNA: GGGAGAACUUGGAGCUCCUGAAUAAGGGUGGGGAGACUUGUGGAGGGCAAGAGUGCGACGUCAGUC
# modifications: 2'-F all pyrimidines (U,C)
# B5: SEQ ID NO: 40 (ssRNA)
# RNA: B4 RNA with U29A, A50G, G51A
# modifications: 2'-F all pyrimidines (U,C)
# B6: SEQ ID NO: 8 (ssRNA)
# RNA: GGGAUCCGCAUCUAGAGUACGAUGUGCUUGUGCUGAAAUUAGAUUUCGCCGACUUUCCCUAACGUCUACUGAAGCUAUCA
# modifications: 2'-F all pyrimidines (U,C)
# B7: SEQ ID NO: 7 (ssRNA)
# RNA: GGGAUCCGCAUCUAGAGUACGAAUAGUAAGGGAAUGACUCUCGGACCAAUGUAUUGCUAUAACGUCUACUGAAGCUAUCA
# modifications: 2'-F all pyrimidines (U,C)
# B8: SEQ ID NO: 12 (ssRNA)
# RNA: GGGAUCCGCAUCUAGAGUACCUAGAGGUGACUUGGGACGCGAGUUAUAAGGGAAUAGUCCAACGUCUACUGAAGCUAUCA
# modifications: 2'-F all pyrimidines (U,C)
# B9: SEQ ID NO: 10 (ssRNA)
# RNA: GGGAUCCGCAUCUAGAGUACGAUGCAUGUUUUUAUAAAGUAUUGUUAUGUAAUGCAUCAAAACGUCUACUGAAGCUAUCA
# modifications: 2'-F all pyrimidines (U,C)
# B10: SEQ ID NO: 9 (ssRNA)
# RNA: GGGAUCCGCAUCUAGAGUACCAUAAGGGUGGGGAGACUUGGGAGAGGGCAAAGAAGACUAAACGUCUACUGAAGCUAUCA
# modifications: 2'-F all pyrimidines (U,C)
# B11: SEQ ID NO: 6 (ssRNA)
# RNA: GGGAUCCGCAUCUAGAGUACUUGUAUAAGUGGAGGGCGAGACUUGGGAGGGGCGAAUUGAAACGUCUACUGAAGCUAUCA
# modifications: 2'-F all pyrimidines (U,C)
# B12: SEQ ID NO: 26 (ssRNA)
# RNA: GGGAAUGCACUAGUGUUCAACCCCGACCAAUAGCAGCCCGUCUUUAACUAUUGGAAUCGCAUACGGGCCCAAGCUUGCACGUCGAGUCAG
# modifications: 2'-F all pyrimidines (U,C)
# Molecular target: T1, TGF-β1 (Homo sapiens, UniProt P01137 P01137:279-390)
# Test: SPR; +
# Details: tags: Recombinant Human TGF-β1, Peprotech; chain copies: 2 (homodimer, inferred)
# T1 sequence (P01137 279-390, one chain of several): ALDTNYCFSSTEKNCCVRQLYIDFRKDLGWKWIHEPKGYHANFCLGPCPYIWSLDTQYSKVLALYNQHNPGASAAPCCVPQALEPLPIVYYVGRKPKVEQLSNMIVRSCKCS
row,Binder,binding result
1,B1,binds
2,B2,binds
3,B3,binds

# Molecular target: T1, TGF-β1
# Test: cell_activity; 80 pM:20 nM
# Details: tags: Recombinant Human TGF-β1, Peprotech; chain copies: 2 (homodimer, inferred); G4 (predicted)
# Procedure: (§1) Whether the nucleic acids of SEQ ID NOs: 4-13, 17-22, 26-28 inhibit the activity of TGF-β1 was evaluated by a cell assay system that monitors Smad signaling pathway known to be activated by the stimulation of TGF-β. To be specific, photinus luciferase equipped with SBE (Smad-binding element) in the promoter region was used as a reporter (pGL4.48[luc2P/SBE/Hygro] Vector, Promega KK). Together with this SBE-induced photinus luciferase reporter plasmid, a renillaluciferase expression plasmid (pGL4.74[hRluc/TK] Vector, Promega KK) was mixed at a ratio of 20:1 as a standardized control for transfection efficiency, and transfected into HEK293 cells. The transfected HEK293 cells were re-seeded in a 96-well plate and cultured until confluent. TGF-β1 and a mixture of nucleic acid aptamers of SEQ ID NOs: 4-13, 17-22, 26-28 synthesized using T7 RNA polymerase (Y639F) were added thereto to respective final concentrations of 80 pM, 20 nM, and the cells were cultured for 3 hr. Thereafter, the expression levels of photinus luciferase and renillaluciferase were confirmed using Dual-Luciferase (registered trade mark) Reporter Assay System (Promega KK). The measurement value of photinus luciferase in each sample was corrected with the measured value of renillaluciferase, and the relative expression level of each sample was calculated by setting the ratio of photinus luciferase and renillaluciferase in a sample free of addition of TGF-β1 as 1. […] When a nucleic acid pool of 35N, 40N or 50N (SEQ ID NO: 14, 1, 23) was used as a negative control and a known TGF-β antibody (R&D, MAB1835) was used as a positive control, the same treatment and measurement were performed.
# Whether or not these nucleic acids inhibit the activity of TGF-β1 was evaluated by a luciferase reporter assay similar to that in Example 4, as in Example 1.
row,Binder,activity [% inhibition]
1,B4,100
2,B5,100

# Molecular target: T1, TGF-β1
# Test: SPR
# Details: tags: Recombinant Human TGF-β1, Peprotech; chain copies: 2 (homodimer, inferred)
row,Binder,qualitative [RU]
1,B6,≤ 10
2,B7,≤ 10
3,B8,≤ 10
4,B9,≤ 10

# Molecular target: T1, TGF-β1
# Test: cell_activity; SBE-luciferase HEK293, 80 pM:20 nM
# Details: tags: Recombinant Human TGF-β1, Peprotech; chain copies: 2 (homodimer, inferred)
# Procedure: as §1
row,Binder,activity [% inhibition]
1,B10,80
2,B11,98
3,B12,81

# Molecular target: T1, TGF-β1
# Test: SPR; receptor-binding inhibition, 10 nM:30 nM
# Details: tags: Recombinant Human TGF-β1, Peprotech; chain copies: 2 (homodimer, inferred)
# Procedure: Measurement of Inhibitory Activity of Aptamer Against TGF-β1-2 Whether or not the nucleic acids of SEQ ID NOs: 6, 9, 19, 21, 26 inhibit the binding of TGF-β1 to the TGF-β receptor was evaluated by surface plasmon resonance method. For the measurement, Biacore T200 manufactured by GE Healthcare was used, and the measurement was performed by the method shown below. About 1500 RU of protein A was immobilized on the surface of a sensor chip of CM4 chip by using an amine coupling kit. 20 μL of Fc fusion TRII receptor (R&D) adjusted to 30 nM was injected as an analyte at a flow rate of 20 μL/min. As a result, the Fc fusion TRII receptor was immobilized on the surface of the sensor chip of the CM4 chip via protein A. Furthermore, a mixed solution of TGF-β1 (4 nM) or TGF-β1 (10 nM), and nucleic acid (30 nM) was injected. Solution A was used as the running buffer. Based on the RU value of a sample injected with TGF-β1 alone and the RU value before injection of TGF-β1, the effect of suppressing an increase in the RU value when TGF-β1 was injected in the presence of nucleic acid was calculated as the effect of inhibiting the binding of TGF-β1 to the TRII receptor.
row,Binder,binding signal [% inhibition]
1,B10,70.2
2,B11,75
3,B12,84.3
